Source: patent US20150329637A1 (NUMAB, published 2015)

Experiments:
[1] = target: T1, human IL23R on IL-23R expressing cell lines (DLD-1, SW480, TF-1) (human, UniProt Q5VWK5 24-629); assay: cell-based or functional assay
T1 sequence (looked up): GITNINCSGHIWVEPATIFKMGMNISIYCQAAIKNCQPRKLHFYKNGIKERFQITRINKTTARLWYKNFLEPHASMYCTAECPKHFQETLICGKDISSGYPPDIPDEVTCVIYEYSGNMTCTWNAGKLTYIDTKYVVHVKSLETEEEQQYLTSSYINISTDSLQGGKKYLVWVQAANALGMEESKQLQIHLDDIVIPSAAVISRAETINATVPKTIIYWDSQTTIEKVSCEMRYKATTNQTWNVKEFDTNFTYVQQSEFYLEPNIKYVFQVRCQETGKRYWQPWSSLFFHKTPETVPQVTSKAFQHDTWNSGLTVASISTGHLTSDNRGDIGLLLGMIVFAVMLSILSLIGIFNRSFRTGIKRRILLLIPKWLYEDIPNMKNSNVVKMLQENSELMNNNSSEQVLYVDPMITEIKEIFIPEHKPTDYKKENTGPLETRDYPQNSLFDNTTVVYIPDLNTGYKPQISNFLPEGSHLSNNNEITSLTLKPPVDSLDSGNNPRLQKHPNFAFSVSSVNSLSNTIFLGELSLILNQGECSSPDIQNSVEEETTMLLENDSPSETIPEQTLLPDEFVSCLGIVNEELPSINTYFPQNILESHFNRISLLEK

[2] = target: T2, Human IL23R extracellular domain (ECD) (human, UniProt Q5VWK5 24-355); assay: SPR; human IL23R ECD immobilised, scDb injected
T2 construct: extracellular domain; also called human IL23R ECD
T2 sequence (looked up): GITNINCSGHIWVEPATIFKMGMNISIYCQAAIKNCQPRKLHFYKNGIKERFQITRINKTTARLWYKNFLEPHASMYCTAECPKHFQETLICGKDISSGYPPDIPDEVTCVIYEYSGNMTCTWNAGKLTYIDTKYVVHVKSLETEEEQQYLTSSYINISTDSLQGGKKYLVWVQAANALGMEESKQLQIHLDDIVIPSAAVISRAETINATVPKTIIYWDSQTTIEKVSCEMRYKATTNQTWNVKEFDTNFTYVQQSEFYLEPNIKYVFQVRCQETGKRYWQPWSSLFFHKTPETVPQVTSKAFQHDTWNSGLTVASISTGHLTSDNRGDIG
Procedure: [000154] For affinity measurements to IL23R, human IL23R extracellular domain (produced on request by Trenzyme) was immobilized on a sensor chip (SPR-2 Affinity Sensor High Capacity Amine, Sierra Sensors) using a standard amine-coupling procedure. Two-fold serial dilutions of scDbs ranging from 90 to 5.6 nM were injected into the flow cells for 3 min and dissociation of the protein from the immobilized IL23R on the sensor chip was allowed to proceed for 720 sec. After each injection cycle, surfaces were regenerated with a 1 min injection of 10 mM Glycine-HCl pH 2.0. The apparent dissociation (kd) and association (ka) rate constants and the apparent dissociation equilibrium constant (KD) are calculated with the MASS-1 analysis software (Analyzer, Sierra Sensors) using one-to-one Langmuir binding model.

[3] = target: T3, human heterodimeric single-chain CD3γδ extracellular domain (produced in-house) (human); assay: SPR; human single-chain CD3 ECD immobilised, scDb injected
T3 chain: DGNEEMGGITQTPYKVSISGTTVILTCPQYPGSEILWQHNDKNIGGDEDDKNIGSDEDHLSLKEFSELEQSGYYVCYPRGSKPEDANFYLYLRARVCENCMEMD

B1: PRO165 (bispecific antibody)
chain: DIQMTQSPSSLSASVGDRVTITCQASENIYSFLAWYQQKPGKAPKLLIYSASKLAAGVPSRFSGSGSGTDFTLTISSLQPEDFATYYCQQTNRYSNPDIYNVFGQGTKLTVLGGGGGSEVQLVESGGGLVQPGGSLRLSCAASGFPLSSYAMIWVRQAPGKGLEWIGMILRAGNIYYASWVKGRFTISRDNSKNTVYLQMNSLRAEDTAVYYCARRHYNREGYPIGIGDLWGQGTLVTVSSGGGGSGGGGSGGGGSGGGGSDIQMTQSPSSLSASVGDRVTITCQSSESVYNNKRLSWYQQKPGKAPKLLIYTASSLASGVPSRFSGSGSGTDFTLTISSLQPEDFATYYCQGEFTCSNADCFTFGQGTKLTVLGGGGGSEVQLVESGGGLVQPGGSLRLSCAASGIDFNSNYYMCWVRQAPGKGLEWIGCIYVGSHVNTYYANWAKGRFTISRDNSKNTVYLQMNSLRAEDTAVYYCATSGSSVLYFKFWGQGTLVTVSS
notes: also called anti-IL23RxCD3ε scDb
Q: With B1 as the binder, how does the “EC50 of specific target cell lysis [nM], DLD-1” value [1] read?
A: 45.4 nM

Q: And the “EC50 of specific target cell lysis [nM], SW-480” value [1]?
A: 71.7 nM

Q: And the “EC50 of specific target cell lysis [nM], TF-1” value [1]?
A: 39.8 nM

Q: And the Kd [2]?
A: 0.182 nM

Q: And the Kd [3]?
A: 11.6 nM

Q: And the koff [3]?
A: 0.00126 s⁻¹

Q: What about the kon [3] of the same binder?
A: 109000 M⁻¹ s⁻¹
